# Bridges are numbered along the chain shown (N, C = ends). Where no end group is shown, it is not given here. [ ]: non-standard residue; d: D form. dCha = N[C@H](CC1CCCCC1)C(=O)O; Aib = CC(C)(N)C(=O)O
# B1: SEQ. ID. NO. 41 (peptide)
# peptide: AFDMLRCMLGRVYRPCWQV
# modifications: disulfide 7-16
# notes: positions 1-19 as in hMCH; also called Ala^1
# B2: SEQ. ID. NO. 11 (peptide)
# peptide: Ac-RCML[Aib]RVYRPC-NH2
# modifications: disulfide 2-11
# SMILES: CSCC[C@@H]1NC(=O)[C@@H](NC(=O)[C@H](CCCNC(=N)N)NC(C)=O)CSSC[C@@H](C(N)=O)NC(=O)[C@@H]2CCCN2C(=O)[C@H](CCCNC(=N)N)NC(=O)[C@H](Cc2ccc(O)cc2)NC(=O)[C@H](C(C)C)NC(=O)[C@H](CCCNC(=N)N)NC(=O)C(C)(C)NC(=O)[C@H](CC(C)C)NC1=O
# notes: also called Aib^10
# B3: SEQ. ID. NO. 13 (peptide)
# peptide: Ac-RCML[dA]RVYRPC-NH2
# modifications: disulfide 2-11
# SMILES: CSCC[C@@H]1NC(=O)[C@@H](NC(=O)[C@H](CCCNC(=N)N)NC(C)=O)CSSC[C@@H](C(N)=O)NC(=O)[C@@H]2CCCN2C(=O)[C@H](CCCNC(=N)N)NC(=O)[C@H](Cc2ccc(O)cc2)NC(=O)[C@H](C(C)C)NC(=O)[C@H](CCCNC(=N)N)NC(=O)[C@@H](C)NC(=O)[C@H](CC(C)C)NC1=O
# notes: also called D-Ala^10
# Biological target: T1, human melanin concentrating hormone type 2 receptor (MCH-2R) (human, UniProt Q969V1 1-340)
# T1 construct: also called MCH-R2
# Experiment: SPA competition with [125I]-human MCH (Phe13, Tyr19) on receptor membranes
# Experimental: (§1) For the SPA-based assay, WGA-PVT beads (NEN Life Sciences Products) were resuspended in Dulbecco's PBS with calcium and magnesium (500 mg beads in 4 ml PBS). […] The suspension was mixed gently for 20 minutes, 12.3 ml of assay buffer and protease inhibitors were added (final concentration given): 2 μg/ml leupeptin, 10 μM phosphoramidon, 40 μg/ml bacitracin, 5 μg/ml aprotinin, 0.1 mM Pefabloc.
# (§2) Coated beads were kept on ice until use. […] Binding reactions were allowed to proceed at room temperature for 3 hours. Quantitation was performed by scintillation counting (TopCount device).
# T1 sequence (Q969V1 whole entry, form in doubt): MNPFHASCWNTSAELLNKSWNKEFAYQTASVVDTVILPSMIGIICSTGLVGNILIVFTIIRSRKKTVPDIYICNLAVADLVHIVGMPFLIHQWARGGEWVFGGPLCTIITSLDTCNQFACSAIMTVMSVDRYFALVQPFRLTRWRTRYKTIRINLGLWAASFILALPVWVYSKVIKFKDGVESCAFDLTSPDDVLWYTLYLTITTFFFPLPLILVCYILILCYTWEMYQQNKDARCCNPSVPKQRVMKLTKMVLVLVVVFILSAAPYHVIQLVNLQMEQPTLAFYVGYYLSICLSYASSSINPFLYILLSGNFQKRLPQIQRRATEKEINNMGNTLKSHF
row,Binder,IC50 [nM]
1,B1,2.1
2,"DFDMLRCMLGRVARPCWQV (disulfide 7-16, also called Ala^13) [SEQ. ID. NO. 51]",670
3,DFDMLRCMLGAVYRPCWQV (disulfide 7-16) [SEQ. ID. NO. 49],290
4,"DFDALRCMLGRVYRPCWQV (disulfide 7-16, also called Ala^4) [SEQ. ID. NO. 44]",2.4
5,DFDMLRCALGRVYRPCWQV (disulfide 7-16) [SEQ. ID. NO. 47],40
6,"DFDMLRCMLGRAYRPCWQV (disulfide 7-16, also called Ala^12) [SEQ. ID. NO. 50]",25
7,"DFDMLACMLGRVYRPCWQV (disulfide 7-16, also called Ala^6) [SEQ. ID. NO. 46]",200
8,"DFAMLRCMLGRVYRPCWQV (disulfide 7-16, also called Ala^3) [SEQ. ID. NO. 43]",1.2
9,"DFDMARCMLGRVYRPCWQV (disulfide 7-16, also called Ala^5) [SEQ. ID. NO. 45]",2
10,"DFDMLRCMAGRVYRPCWQV (disulfide 7-16, also called Ala^9) [SEQ. ID. NO. 48]",9.5
11,"DADMLRCMLGRVYRPCWQV (disulfide 7-16, also called Ala^2) [SEQ. ID. NO. 42]",1.1

# Biological target: T2, human MCH-1R (human, UniProt Q99705 1-353)
# T2 construct: also called MCH-R1
# Experiment: as above
# Experimental: as §1, §2
# T2 sequence (Q99705 whole entry, form in doubt): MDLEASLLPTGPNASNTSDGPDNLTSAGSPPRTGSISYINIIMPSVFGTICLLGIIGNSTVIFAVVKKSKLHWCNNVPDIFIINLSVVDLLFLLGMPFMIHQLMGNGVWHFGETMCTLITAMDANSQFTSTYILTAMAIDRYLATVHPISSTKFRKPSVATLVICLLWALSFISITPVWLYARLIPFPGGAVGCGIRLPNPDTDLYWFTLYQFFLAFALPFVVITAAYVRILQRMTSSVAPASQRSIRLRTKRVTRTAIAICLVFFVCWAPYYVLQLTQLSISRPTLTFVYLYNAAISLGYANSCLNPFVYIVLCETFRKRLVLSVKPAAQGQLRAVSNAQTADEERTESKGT
row,Binder,IC50 [nM]
1,"DFDMLRCMLGRVARPCWQV (disulfide 7-16, also called Ala^13) [SEQ. ID. NO. 51]",253
2,DFDMLRCMLGAVYRPCWQV (disulfide 7-16) [SEQ. ID. NO. 49],169
3,"DFDALRCMLGRVYRPCWQV (disulfide 7-16, also called Ala^4) [SEQ. ID. NO. 44]",0.5
4,DFDMLRCALGRVYRPCWQV (disulfide 7-16) [SEQ. ID. NO. 47],40.1
5,"DFDMLRCMLGRAYRPCWQV (disulfide 7-16, also called Ala^12) [SEQ. ID. NO. 50]",0.9
6,"DFDMLACMLGRVYRPCWQV (disulfide 7-16, also called Ala^6) [SEQ. ID. NO. 46]",4.5
7,"DFAMLRCMLGRVYRPCWQV (disulfide 7-16, also called Ala^3) [SEQ. ID. NO. 43]",0.5
8,"DFDMARCMLGRVYRPCWQV (disulfide 7-16, also called Ala^5) [SEQ. ID. NO. 45]",0.3
9,"DFDMLRCMAGRVYRPCWQV (disulfide 7-16, also called Ala^9) [SEQ. ID. NO. 48]",0.9
10,"DADMLRCMLGRVYRPCWQV (disulfide 7-16, also called Ala^2) [SEQ. ID. NO. 42]",0.2

# Biological target: T1, human melanin concentrating hormone …
# Experiment: cell-based or functional assay
Binder,Activation % at 10 µM (aequorin functional assay) [%],EC50 (aequorin functional assay) [nM]
B1,96,114
"DFDMLRCMLGRVARPCWQV (disulfide 7-16, also called Ala^13) [SEQ. ID. NO. 51]",,> 1000
DFDMLRCMLGAVYRPCWQV (disulfide 7-16) [SEQ. ID. NO. 49],,> 1000
"DFDALRCMLGRVYRPCWQV (disulfide 7-16, also called Ala^4) [SEQ. ID. NO. 44]",100,38.9
DFDMLRCALGRVYRPCWQV (disulfide 7-16) [SEQ. ID. NO. 47],94,125
"DFDMLRCMLGRAYRPCWQV (disulfide 7-16, also called Ala^12) [SEQ. ID. NO. 50]",98,83.6
"DFDMLACMLGRVYRPCWQV (disulfide 7-16, also called Ala^6) [SEQ. ID. NO. 46]",76,853
"DFAMLRCMLGRVYRPCWQV (disulfide 7-16, also called Ala^3) [SEQ. ID. NO. 43]",95,57.2
"DFDMARCMLGRVYRPCWQV (disulfide 7-16, also called Ala^5) [SEQ. ID. NO. 45]",94,17.9
"DFDMLRCMAGRVYRPCWQV (disulfide 7-16, also called Ala^9) [SEQ. ID. NO. 48]",92,95.7
"DADMLRCMLGRVYRPCWQV (disulfide 7-16, also called Ala^2) [SEQ. ID. NO. 42]",102,28.6

# Biological target: T2, human MCH-1R
# Experiment: cell-based or functional assay
Binder,Activation % at 10 µM (aequorin functional assay) [%],EC50 (aequorin functional assay) [nM]
"DFDMLRCMLGRVARPCWQV (disulfide 7-16, also called Ala^13) [SEQ. ID. NO. 51]",20,2300
DFDMLRCMLGAVYRPCWQV (disulfide 7-16) [SEQ. ID. NO. 49],24,5240
"DFDALRCMLGRVYRPCWQV (disulfide 7-16, also called Ala^4) [SEQ. ID. NO. 44]",97,12.7
DFDMLRCALGRVYRPCWQV (disulfide 7-16) [SEQ. ID. NO. 47],56,731
"DFDMLRCMLGRAYRPCWQV (disulfide 7-16, also called Ala^12) [SEQ. ID. NO. 50]",95,38.3
"DFDMLACMLGRVYRPCWQV (disulfide 7-16, also called Ala^6) [SEQ. ID. NO. 46]",81,161
"DFAMLRCMLGRVYRPCWQV (disulfide 7-16, also called Ala^3) [SEQ. ID. NO. 43]",97,30.2
"DFDMARCMLGRVYRPCWQV (disulfide 7-16, also called Ala^5) [SEQ. ID. NO. 45]",96,20.3
"DFDMLRCMAGRVYRPCWQV (disulfide 7-16, also called Ala^9) [SEQ. ID. NO. 48]",96,22
"DADMLRCMLGRVYRPCWQV (disulfide 7-16, also called Ala^2) [SEQ. ID. NO. 42]",97,9.9

# Biological target: T1, human melanin concentrating hormone …
# Experiment: SPA competition with [125I]-human MCH (Phe13, Tyr19) on receptor membranes
# Remark: another data set of the same source
# Experimental: as §1, §2
row,Binder,IC50 [nM]
1,"Ac-RCML[dN]RVYRPC-NH2 (disulfide 2-11 (inferred), also called D-Asn^10) [SEQ. ID. NO. 18]",2.3
2,"Ac-RCML[dF]RVYRPC-NH2 (disulfide 2-11 (inferred), also called D-Phe^10) [SEQ. ID. NO. 17]",47
3,"Ac-RCML[dCha]RVYRPC-NH2 (disulfide 2-11 (inferred), also called D-Cha^10) [SEQ. ID. NO. 16]",74
4,"RCMLXRVYRPC (Phg^10 (phenylglycine), also called Phg^10) [SEQ. ID. NO. 12]",312
5,"RCMLGXVYRPC (Harg^11 (homoarginine), also called Harg^11) [SEQ. ID. NO. 24]",0.4
6,"Ac-RCML[dS]RVYRPC-NH2 (disulfide 2-11 (inferred), also called D-Ser^10) [SEQ. ID. NO. 19]",1.6
7,"RCMLGXVYRPC (Arg(NO2)^11 (nitroarginine), also called Arg(NO2)^11) [SEQ. ID. NO. 25]",4.9
8,B2,2.2
9,B3,3.2

# Biological target: T2, human MCH-1R
# Experiment: as above
# Remark: another data set of the same source
# Experimental: as §1, §2
Binder,IC50 [nM],% @ concentration [% @ 1 µM]
"Ac-RCML[dN]RVYRPC-NH2 (disulfide 2-11 (inferred), also called D-Asn^10) [SEQ. ID. NO. 18]",97,
"Ac-RCML[dF]RVYRPC-NH2 (disulfide 2-11 (inferred), also called D-Phe^10) [SEQ. ID. NO. 17]",18,
"Ac-RCML[dCha]RVYRPC-NH2 (disulfide 2-11 (inferred), also called D-Cha^10) [SEQ. ID. NO. 16]",11,
"RCMLXRVYRPC (Phg^10 (phenylglycine), also called Phg^10) [SEQ. ID. NO. 12]",2.9,
"RCMLGXVYRPC (Harg^11 (homoarginine), also called Harg^11) [SEQ. ID. NO. 24]",6.9,
"Ac-RCML[dS]RVYRPC-NH2 (disulfide 2-11 (inferred), also called D-Ser^10) [SEQ. ID. NO. 19]",31,
"RCMLGXVYRPC (Arg(NO2)^11 (nitroarginine), also called Arg(NO2)^11) [SEQ. ID. NO. 25]",,80
B2,90,
B3,490,

# Biological target: T1, human melanin concentrating hormone …
# Experiment: cell-based or functional assay
# Remark: another data set of the same source
Binder,Activation % at 10 µM (aequorin functional assay) [%],EC50 (aequorin functional assay) [nM]
"Ac-RCML[dN]RVYRPC-NH2 (disulfide 2-11 (inferred), also called D-Asn^10) [SEQ. ID. NO. 18]",106,24
"Ac-RCML[dF]RVYRPC-NH2 (disulfide 2-11 (inferred), also called D-Phe^10) [SEQ. ID. NO. 17]",102,25
"Ac-RCML[dCha]RVYRPC-NH2 (disulfide 2-11 (inferred), also called D-Cha^10) [SEQ. ID. NO. 16]",74,207
"RCMLXRVYRPC (Phg^10 (phenylglycine), also called Phg^10) [SEQ. ID. NO. 12]",80,140
"RCMLGXVYRPC (Harg^11 (homoarginine), also called Harg^11) [SEQ. ID. NO. 24]",43,> 10000
"Ac-RCML[dS]RVYRPC-NH2 (disulfide 2-11 (inferred), also called D-Ser^10) [SEQ. ID. NO. 19]",113,7
"RCMLGXVYRPC (Arg(NO2)^11 (nitroarginine), also called Arg(NO2)^11) [SEQ. ID. NO. 25]",39,> 10000
B2,104,24
B3,103,16

# Biological target: T2, human MCH-1R
# Experiment: cell-based or functional assay
# Remark: another data set of the same source
Binder,Activation % at 10 µM (aequorin functional assay) [%],EC50 (aequorin functional assay) [nM]
"Ac-RCML[dN]RVYRPC-NH2 (disulfide 2-11 (inferred), also called D-Asn^10) [SEQ. ID. NO. 18]",39,3000
"Ac-RCML[dF]RVYRPC-NH2 (disulfide 2-11 (inferred), also called D-Phe^10) [SEQ. ID. NO. 17]",5,> 10000
"Ac-RCML[dCha]RVYRPC-NH2 (disulfide 2-11 (inferred), also called D-Cha^10) [SEQ. ID. NO. 16]",0.1,> 10000
"RCMLXRVYRPC (Phg^10 (phenylglycine), also called Phg^10) [SEQ. ID. NO. 12]",0.1,> 10000
"RCMLGXVYRPC (Harg^11 (homoarginine), also called Harg^11) [SEQ. ID. NO. 24]",72,1200
"Ac-RCML[dS]RVYRPC-NH2 (disulfide 2-11 (inferred), also called D-Ser^10) [SEQ. ID. NO. 19]",47,2560
"RCMLGXVYRPC (Arg(NO2)^11 (nitroarginine), also called Arg(NO2)^11) [SEQ. ID. NO. 25]",,> 1000
B2,22,1900
B3,40,1360

# — US20040147432A1 (MERCK, published 2004)
